Results published in patent CN106866820A (AB-MAT MEDICINE TECH (SHANGHAI) CO LTD, dated 2017).

Columns and labels:
[1] = target: T1, 人角蛋白18(CK18), endogenous protein in PC9 cell lysate / membrane protein extract (human, UniProt P05783 2-430); assay: Western blot on PC9 whole-cell lysate, antibody diluted 1:1000 and 1:2000
T1 construct: Endogenous protein in lysate or extract; also called 48KD条带
T1 sequence (looked up): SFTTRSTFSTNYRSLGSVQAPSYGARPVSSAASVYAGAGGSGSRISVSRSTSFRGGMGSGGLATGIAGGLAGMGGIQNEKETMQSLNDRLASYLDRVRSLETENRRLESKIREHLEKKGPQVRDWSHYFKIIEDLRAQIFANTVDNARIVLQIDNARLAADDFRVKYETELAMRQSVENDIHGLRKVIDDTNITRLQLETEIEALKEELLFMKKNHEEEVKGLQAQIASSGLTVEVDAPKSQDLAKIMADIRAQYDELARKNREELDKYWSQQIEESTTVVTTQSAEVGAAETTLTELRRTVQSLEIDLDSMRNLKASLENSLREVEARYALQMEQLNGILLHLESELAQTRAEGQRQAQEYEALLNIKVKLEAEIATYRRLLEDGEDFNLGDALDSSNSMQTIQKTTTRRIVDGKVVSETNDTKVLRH

[2] = target: T2, 人角蛋白18(CK18), on PC9 human lung cancer cells (human, UniProt P05783 2-430); assay: immunofluorescence on PFA-fixed non-permeabilised PC9 cells, antibody 1:1000, FITC goat anti-mouse secondary
T2 construct: whole, on cells; Endogenous CK18 on non-permeabilised PFA-fixed PC9 cells (IF) or live PC-9 cells (capture); also called human keratin 18; cytokeratin 18
T2 sequence (looked up): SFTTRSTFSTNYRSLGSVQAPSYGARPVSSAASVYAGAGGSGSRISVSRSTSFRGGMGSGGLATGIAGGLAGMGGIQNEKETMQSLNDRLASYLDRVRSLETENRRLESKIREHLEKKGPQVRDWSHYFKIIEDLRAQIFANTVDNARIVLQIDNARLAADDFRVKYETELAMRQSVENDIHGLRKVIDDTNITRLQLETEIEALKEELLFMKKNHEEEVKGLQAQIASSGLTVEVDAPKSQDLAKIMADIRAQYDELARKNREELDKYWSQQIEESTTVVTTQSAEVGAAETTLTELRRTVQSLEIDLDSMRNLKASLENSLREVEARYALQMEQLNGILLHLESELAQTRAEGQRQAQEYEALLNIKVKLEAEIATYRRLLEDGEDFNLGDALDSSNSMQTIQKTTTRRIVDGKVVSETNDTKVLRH

binding result [1]: binds
binding result [2]: binds
B1: anti-CK18(克隆号1P1)抗体 (antibody, V domains shown)
VH: EVQLQESGPSLVKPSQTLSLTCSVTGDSFTSGYWNWIRKFPGNKLEYMGYISYSGNCYYNPSLKSRISITRDTSKNQYYLQMNSVTTEDTATYFCARASAYYYGSFYDYAMDYWGQGTSVTVSS
VL: DIVMTQSQKFMSTSVGDRVSITCKASQNVDTAVAWYQQKPGQSPKLLIYSASNRFPGVPDRFTGSGSGTDFTLTISNMQSEDLADYFCQQYSSYPFTFGSGTKLEIK
notes: also called anti-CK18 (clone 1P1); 克隆号1P1 anti-CK18抗体
